In US7981997B2, “Growth factor which acts through ErbB-4 RTK” (Yeda Research And Development Co., priority 2000, dated 2011):

How the values were obtained:
D2 cells = assay: Tyrosine phosphorylation and MAPK activation, immunoblotting; format: cell-based; conditions: doses as high as 1 μg/ml
Protocol: (§1) For receptor activation studies, derivatives of the 32D cell line were resuspended in phosphate-buffered solution (PBS) and incubated at 22 C for 15 minutes before adding growth factors and incubating for five minutes at 37 C. Cells were then pelleted and lysed in ice cold solubilization buffer [50 mM Tris-HCl pH 7.5, 150 mM NaCl, 1% Nonidet-P40, 0.5% Na-deoxycholate, 0.1% sodium dodecyl sulfate (SDS), 1.5 mM EDTA, 1.5 mM MgCl2, 2 mM Na-orthovanadate, 1 mM phenylmethylsulfonyl fluoride (PMSF), 10 µg/ml aprotinin and 10 µg/ml leupeptin] and left on ice for 15 minutes. The whole cell extract was then cleared by centrifugation (12,000×g for 10 minutes at 4 C), immediately boiled in reducing gel sample buffer, and resolved by 10% SDS PAGE before being transferred onto nitrocellulose. Filters were blocked in TBST buffer (0.02 M Tris-HCl pH 7.5, 0.15 M NaCl, 0.05% Tween-20) containing 1% milk for 40 minutes at 22 C, blotted with primary antibodies in TBST overnight at 4 C, followed by conjugation with a secondary antibody linked to horseradish peroxidase and subsequent detection by chemiluminescence (Amersham Corp.).
(§2) Evidently, NRG-4 binds to ErbB-4 and mediates cell proliferation through activation of this receptor. Because other ErbB ligands stimulate cell growth via tyrosine phosphorylation of their respective receptors and activation of the intervening mitogen-activated protein kinase (MAPK) cascade, these two signaling steps were tested in NRG-4-responsive myeloid cells expressing ErbB-4 (D4 and D24 cell lines). Cells were stimulated with 100 ng/ml of activating ligand for five minutes, followed by lysis and analysis by immunoblotting.

D3 cells = assay: as above; format: cell-based; conditions: doses as high as 1 μg/ml
Protocol: as §1, §2

D13 cells = assay: as above; format: cell-based; conditions: doses as high as 1 μg/ml
Protocol: as §1, §2

D23 cells = assay: as above; format: cell-based; conditions: doses as high as 1 μg/ml
Protocol: as §1, §2

D12 cells = assay: as above; format: cell-based; conditions: doses as high as 1 μg/ml
Protocol: as §1, §2

D1 cells = assay: as above; format: cell-based; conditions: doses as high as 1 μg/ml
Protocol: as §1, §2

[1] = target: T1, ErbB-4 co-expressed with ErbB-3 (Homo sapiens, UniProt Q15303); assay: Covalent crosslinking to CHO cells co-transfected with ErbB-4 and ErbB-3; format: binding
T1 construct: expressed in transfected cells; host or cells: CHO (Chinese Hamster Ovary) cells, transient co-transfection
T1 sequence (Q15303 26-1308): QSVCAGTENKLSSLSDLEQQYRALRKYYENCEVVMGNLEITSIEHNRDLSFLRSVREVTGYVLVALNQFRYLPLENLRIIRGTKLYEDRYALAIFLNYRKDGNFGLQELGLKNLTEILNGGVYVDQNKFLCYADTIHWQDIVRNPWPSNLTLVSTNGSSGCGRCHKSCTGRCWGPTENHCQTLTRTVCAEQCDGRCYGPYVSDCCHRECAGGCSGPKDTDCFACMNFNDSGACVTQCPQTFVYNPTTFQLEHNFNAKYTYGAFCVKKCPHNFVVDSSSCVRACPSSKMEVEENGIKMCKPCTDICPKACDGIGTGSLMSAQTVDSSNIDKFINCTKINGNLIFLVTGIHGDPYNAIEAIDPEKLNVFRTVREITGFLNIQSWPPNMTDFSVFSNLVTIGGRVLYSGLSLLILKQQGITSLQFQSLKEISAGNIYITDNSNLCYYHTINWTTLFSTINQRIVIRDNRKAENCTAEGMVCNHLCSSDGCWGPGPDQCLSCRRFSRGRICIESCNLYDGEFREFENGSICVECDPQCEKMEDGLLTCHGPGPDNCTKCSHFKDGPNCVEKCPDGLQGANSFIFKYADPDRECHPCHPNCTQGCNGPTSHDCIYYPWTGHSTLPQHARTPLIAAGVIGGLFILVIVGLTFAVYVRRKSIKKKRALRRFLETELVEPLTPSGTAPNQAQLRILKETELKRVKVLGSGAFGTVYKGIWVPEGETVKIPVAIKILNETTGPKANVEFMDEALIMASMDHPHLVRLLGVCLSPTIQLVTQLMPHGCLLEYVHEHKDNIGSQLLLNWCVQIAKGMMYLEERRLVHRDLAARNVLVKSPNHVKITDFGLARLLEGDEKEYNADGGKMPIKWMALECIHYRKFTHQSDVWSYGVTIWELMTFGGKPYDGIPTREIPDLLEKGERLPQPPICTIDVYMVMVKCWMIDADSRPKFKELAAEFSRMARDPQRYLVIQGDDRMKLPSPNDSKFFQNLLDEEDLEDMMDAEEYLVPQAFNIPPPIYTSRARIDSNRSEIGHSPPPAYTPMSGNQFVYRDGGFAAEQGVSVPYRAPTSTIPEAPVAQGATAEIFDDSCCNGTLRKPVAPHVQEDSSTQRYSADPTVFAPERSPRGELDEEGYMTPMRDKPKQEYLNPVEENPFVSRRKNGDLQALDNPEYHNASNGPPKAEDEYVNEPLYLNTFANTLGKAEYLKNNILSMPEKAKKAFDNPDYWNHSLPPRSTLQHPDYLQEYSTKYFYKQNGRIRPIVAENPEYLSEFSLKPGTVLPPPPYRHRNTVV
Protocol: CHO cells were transfected with vectors directing expression of the indicated ErbB proteins or their combinations. Two days later cell monolayers were incubated with either ^125I-NRG-1β or ^125I-NRG-4 (EGF-like domains, each at 100 ng/ml). Following 2 hours at 4° C., the covalent crosslinking reagent bis(sulfosuccinimdyl)-suberate (BS^3) was added (1 mM final concentration) and cell extracts prepared after an additional 45 minutes of incubation. The indicated ErbB proteins were then immunoprecipitated with mouse monoclonal antibodies, and the complexes resolved by gel electrophoresis and autoradiography. Arrows mark the locations of monomeric (M) and dimeric (D) receptor complexes.
Growth factors were labeled with Iodogen (Pierce) as described (Karunagaran et al., 1995). Chemical crosslinking to Chinese Hamster Ovary (CHO) cells engineered to express different ErbB combinations have been performed essentially as described (Tzahar et al., 1996). Briefly, radiolabeled ligands (at 100 ng/ml) were incubated for 2 hours with cell monolayers at 4 C. […] Non-specific binding was determined in the presence of a 100-fold molar excess of the unlabeled ligani. Cells were then washed, lysed in a solution containing 0.1 M NaOH and 0.1% SDS, and radioactivity determined by use of a gamma counter. […]

B1: NRG-4: synthetic refolded mouse EGF-like domain of NRG-4 (residues 4 to 50, SEQ ID NO:2) (peptide, listed as Mus musculus)
chain: MPTDHEQPCGPRHRSFCLNGGICYVIPTIPSPFCRCIENYTGARCEEVFLPSSSIPSESNLSAAFVVLAVLLTLTIAALCFLCRKGHLQRASSVQCEISLVETNNTRTRHSHREH
- stimulation of D2 cells (D2 cells): did not stimulate
- stimulation of D3 cells (D3 cells): did not stimulate
- stimulation of D13 cells (D13 cells): did not stimulate
- stimulation of D23 cells (D23 cells): did not stimulate
- stimulation of D12 cells (D12 cells): did not stimulate
- stimulation of D1 cells (D1 cells): did not stimulate
- effect of ErbB-3 co-expression on the radioactive signal ([1]; CHO cells, ErbB-4 + ErbB-3): did not significantly affect the radioactive signals
- heterodimerization of ErbB-3 with ErbB-4 ([1]; following ligand binding): largely escaped heterodimerization
